Data as given in the supplement of paper PMC7125110.
± gives the standard error. This sample holds only a part of the variants without activity.

B1: glmS ribozyme (parent)
chain: AUAAAAGCGCCAGAACUACAGAAAUGUAGUUGACGAGGAGGAGGUUUAUCGAAUUUUCGGCGGAUGCCUCCAAA

What was measured:
Conditions in all cases: with glucosamine-6-phosphate
glucosamine-6-phosphate [1] = variants of: B1; test: self-cleavage kobs at 640 uM GlcN6P; higher = faster cleavage; RNA array
Outline: (§1)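 Barcoded ribozyme variants were transcribed in situ on sequenced MiSeq chips by E. coli RNA polymerase. At 37 °C, a hybridised Cy3 probe tracked them while glucosamine-6-phosphate (40 μM to 10 mM) in HEPES/KCl/Mg(OAc)2 buffer flowed in and tiles were imaged over ~14 h. Per-tile medians of signals normalised to baseline and to non-cleaving reference variants were fit to one- or two-exponential decays, giving kobs. kcat and KM came from weighted Michaelis–Menten fits across concentrations.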

glucosamine-6-phosphate [2] = variants of: B1; test: self-cleavage kobs at 2500 uM GlcN6P; higher = faster cleavage; RNA array
Outline: as §1

glucosamine-6-phosphate [3] = variants of: B1; test: self-cleavage kobs at 10000 uM GlcN6P; higher = faster cleavage; RNA array
Outline: as §1

Variant | self-cleavage kobs at 640 uM GlcN6P (glucosamine-6-phosphate [1]) [s⁻¹] | self-cleavage kobs at 2500 uM GlcN6P (glucosamine-6-phosphate [2]) [s⁻¹] | self-cleavage kobs at 10000 uM GlcN6P (glucosamine-6-phosphate [3]) [s⁻¹]
A12G A36C U45C G60U | < 1e-05 | – | –
A12C U30A U56A | 0.000365 ± 0.00012 | 0.00105 ± 0.00026 | 0.00357 ± 0.00086
C10U G37C G60A | < 1e-05 | – | –
A12C A14U C16G G35C G62U | < 1e-05 | – | –
A12U C16A C50A A64G | < 1e-05 | – | –
C10U A33C U46C G51C G60C | < 1e-05 | < 1e-05 | –
C11A G13U U57G C71U | 4.71e-05 ± 2.2e-05 | – | –
A12G C50G C71G | 0.000415 ± 0.00014 | 0.000636 ± 0.00027 | –
A12C U46A G62C | < 1e-05 | – | –
C10A U56A C70U | 6.36e-05 ± 2.6e-05 | 0.000147 ± 6.5e-05 | –
C10U A53U C67A C68G | 4.13e-05 ± 1.9e-05 | – | –
C11G U30G A42U A53U G63U U65A C68G | < 1e-05 | – | –
G9A G44C A53G U57A | < 1e-05 | < 1e-05 | < 1e-05
G9C A15C A53U | < 1e-05 | – | –
C11G C58A C68A | 0.000165 ± 6.6e-05 | – | –
C10A U46C U54G | < 1e-05 | – | –
G13A A52U C70G | < 1e-05 | – | –
A12U G29U G37A U55A | 0.000291 ± 8.3e-05 | 0.000446 ± 9.5e-05 | –
G9U A36G A39U | < 1e-05 | < 1e-05 | –
C11G A12U G41U A53G C67G | < 1e-05 | – | –
C11A C50G U57G | 8.51e-05 ± 3e-05 | 7.4e-05 ± 2.5e-05 | –
G9C C11G | < 1e-05 | < 1e-05 | < 1e-05

Variant | self-cleavage kobs at 640 uM GlcN6P (glucosamine-6-phosphate [1]) [s⁻¹] | self-cleavage kobs at 2500 uM GlcN6P (glucosamine-6-phosphate [2]) [s⁻¹] | self-cleavage kobs at 10000 uM GlcN6P (glucosamine-6-phosphate [3]) [s⁻¹]
G9U G29U G44A | < 1e-05 | < 1e-05 | –
C10U A33G G40U | < 1e-05 | – | –
A12U G44C A48U C58G C67G C71U | < 1e-05 | < 1e-05 | –
C11A U30C G38U | < 1e-05 | < 1e-05 | –
C11U G37A U57G G63A | < 1e-05 | – | –
G9A G38A A42G U69G C70U C71A | < 1e-05 | – | –
G13U A39G U55G | 0.000281 ± 8e-05 | 0.000683 ± 0.00022 | 0.0028 ± 0.00059
C10U A52C C58G | < 1e-05 | < 1e-05 | –
C10U C16A A52U | < 1e-05 | – | –
G13C A36U G59A | < 1e-05 | – | –
A12U U31A C34U G37C C70U | < 1e-05 | – | –
C11G A36C G38U C50A U65G | < 1e-05 | < 1e-05 | < 1e-05
A12C G32C G62A G63U | < 1e-05 | < 1e-05 | –
A12U U30C A53C | 0.000316 ± 0.0001 | 0.000389 ± 0.00012 | 0.00132 ± 0.00056
C11U G35U C68G C70A | 0.000984 ± 0.00032 | – | –
G9C A39G G40U | < 1e-05 | < 1e-05 | < 1e-05
A12C A48C G60C G62C C68A | < 1e-05 | – | –
G9C G38U U45C | < 1e-05 | – | –
G13C G41U C71U | < 1e-05 | – | –
A12C U30C A39U | 0.000221 ± 4.3e-05 | 0.000452 ± 0.00012 | –
C10G G60U G63U | < 1e-05 | – | –
A12C A14C U31G | 0.00206 ± 0.00061 | 0.00423 ± 0.0015 | –

Variant | self-cleavage kobs at 640 uM GlcN6P (glucosamine-6-phosphate [1]) [s⁻¹] | self-cleavage kobs at 2500 uM GlcN6P (glucosamine-6-phosphate [2]) [s⁻¹] | self-cleavage kobs at 10000 uM GlcN6P (glucosamine-6-phosphate [3]) [s⁻¹]
C11U A15C A33G G44U U49C A64C C70U | < 1e-05 | < 1e-05 | –
A12U G13U U46G | < 1e-05 | – | –
A12C A20C | 0.00491 ± 0.0012 | 0.0118 ± 0.0035 | –
A12C G35A A36C U56G G60C | < 1e-05 | < 1e-05 | –
A12C U47C U65C | < 1e-05 | – | –
G9C A39U G40U | < 1e-05 | < 1e-05 | –
C10U A39U A52U C58G C71U | < 1e-05 | < 1e-05 | –
A12U C50U | 4.86e-05 ± 1.1e-05 | 9.52e-05 ± 1.7e-05 | 0.00036 ± 4.5e-05
A12U C16G G32A | 9.86e-05 ± 2.9e-05 | 0.000137 ± 4.8e-05 | –
C11U A53G G66A | 0.000178 ± 4e-05 | – | –
G13C G44C G60A | < 1e-05 | – | –
G9U C10G C11A | < 1e-05 | – | –
A12G G43C G51U G63A U65C C68A | < 1e-05 | < 1e-05 | –
C10U A39U G62A | < 1e-05 | – | –
G9A G13C U57C | < 1e-05 | < 1e-05 | –
G9U A36C A39G C70U | < 1e-05 | – | –
C10U G63C U65G C70A C71A | 0.000118 ± 4.2e-05 | – | < 1e-05
A12G U31G U55A C67U | 5.14e-05 ± 1.3e-05 | 0.00011 ± 1.9e-05 | 0.000176 ± 3.2e-05
G9U C34U A39G | < 1e-05 | – | –
C10A C61G C67G | 0.00401 ± 0.0011 | – | –
